{"source": "patent US20250084186A1", "about": "(published 2025)", "binders": {"B1": {"name": "H1.14_L1 (antibody, V domains shown)", "VH": "EVQLLESGGGLVQPGGSLRLSCAASGFTFSSYAMSWVRQAPGKGLEWVSTISGSGDSTYYADSVKGRFTISRDNSKNTLYLQMNSLRAEDTAVYYCAKSGPGLRQVGFDYWGQGTLVTVSS", "VL": "not shown"}, "B2": {"name": "H1_L1.71 (antibody, V domains shown)", "VH": "B1 VH with A33Y", "VL": "not shown"}, "B3": {"name": "H1.1_L1.71 (antibody, V domains shown)", "VH": "B1 VH with A33Y, G53E", "VL": "not shown"}, "B4": {"name": "H1L1 (antibody, V domains shown)", "VH": "B1 VH", "VL": "not shown"}, "B5": {"name": "H1.14_L1.71 (antibody, V domains shown)", "VH": "B1 VH with A33Y, G53E", "VL": "not shown"}, "B6": {"name": "H1.1_L1 (antibody, V domains shown)", "VH": "B1 VH with A33Y", "VL": "not shown"}, "B7": {"name": "AN1[ENPP3]_H1_L1.33 (antibody, V domains shown)", "VH": "EVQLVESGGGLVQPGGSLRLSCAASGFAFSNYGMSWVRQAPGKRLEWVSYISSGGGTTYYLDSVKGRFTISRDNAKNSLYLQMNSLRAEDTAVYYCARHRRVYYGYYFDYWGQGTLVTVSS", "VL": "DILLTQSPDFQSVTPKEKVTITCRASQSIGTSIHWYQQKPDQSPKLLIEYASESISGIPSRFSGSGSGTDFTLTINSLEAEDAATYYCQQSNSWPYTFGGGTKLEIK"}, "B8": {"name": "AN1[ENPP3]_H1L1 (antibody, V domains shown)", "VH": "B7 VH", "VL": "B7 VL with E49K"}, "B9": {"name": "Cyno ENPP3 (enzyme)", "chain": "EKQGSCRKKCFDASFRGLENCRCDVACEDRGDCCWDFEDTCVESTRIWTCNKFRCGETRLEASLCSCSDDCLQRKDCCADYKSVCQGETSWLEENCDTAQQSQCPEGFDLPPVILFSMDGFRAEYLYTWDTLMPNINKLKTCGIHSKYMRAMYPTKTFPNHYTIVTGLYPESHGIIDNNMYDVNLNKNFSLSSEEQNNPAWWHGQPMWLTAMYQGLKAATYFWPGSEVAINGSFPSIYMPYNRSVPYEERISTLLKWLDLPKAERPSFYTMYFEEPDSSGHASGPVSARVIKALQVVDHAFGMLMEGLKQRNLHNCVNIILLADHGMDQTYCNKMEYMTDYFPRINFYMYEGPAPRIRALNVPHDFFSFNSEEIVRNLSCRKPDQHFKPYLTPDLPKRLHYAKNVRIDKVHLFVDPQWLAVGSKSNTNCGGGNHGYNNEFRSMEAIFLAHGPSFKEKTEVEPFENIEVYNLMCDLLRIQPAPNNGTRGSLNHLLKVPFYKPSHAEEVSKFSVCGFANPLPTDNLSCLCPHLQNSIQLEQVNQMLNLTQEEITATVKVNLPFGRPRVLQKNVDNCLLYHREYVSGFGKAMRMPMWSSYTVPQLGDTSPLPPTVPDCLRADVRVPPSESQKCSFYLADENITHGFLYPPAINRTSDSQYDALIMSNLVPMYEEFRKMWDYFHSVLLIKHATERNGVNVVSGPIFDYNYDGHFDAPEEITKHIANTDIPIPTHYFVVLTSCKNKSHTPENCPGWLDVLPFIIPHRPTNVESCPEGKPEALWVEERLTAHIARVRDVELLTGLDFYQDKAQPVSEILQLKTYLPTFETTI"}}, "key": {"human CD28": {"biological_target": "human CD28 (human, UniProt P10747 19-152)", "assay": "-; scFv VHVL, 1+1 Fab-scFv-Fc"}, "cynomolgus ENPP3 [1]": {"biological_target": "T1, cynomolgus ENPP3 (cynomolgus, UniProt A0A2K5TKP4 49-874)", "T1 chain": "B9 chain", "assay": "Biacore; kinetics"}, "Human ENPP3 [2]": {"biological_target": "Human ENPP3", "assay": "Biacore; kinetics"}, "cynomolgus ENPP3 [3]": {"biological_target": "T1, cynomolgus ENPP3", "assay": "Biacore; steady state"}, "Human ENPP3 [4]": {"biological_target": "Human ENPP3", "assay": "Biacore; steady state"}, "Ha16-1(3,5)5[ENPP3]_H1L1 [5]": {"biological_target": "Ha16-1(3,5)5[ENPP3]_H1L1", "assay": "Biacore; kinetics"}, "ENPP3-A[ENPP3]_H1L1 [6]": {"biological_target": "ENPP3-A[ENPP3]_H1L1", "assay": "Biacore; kinetics"}, "[7]": {"biological_target": "Ha16-1(3,5)18[ENPP3]_H1L1", "assay": "Biacore; kinetics"}, "Ha16-1(3,5)5[ENPP3]_H1L1 [8]": {"biological_target": "Ha16-1(3,5)5[ENPP3]_H1L1", "assay": "Biacore; steady state"}, "ENPP3-A[ENPP3]_H1L1 [9]": {"biological_target": "ENPP3-A[ENPP3]_H1L1", "assay": "Biacore; steady state"}, "[10]": {"biological_target": "Ha16-1(3,5)18[ENPP3]_H1L1", "assay": "Biacore; steady state"}}, "note": "Residue numbers refer to the chain shown, from its start.", "data": [{"binder": "B1", "values": [{"measurement": "Kd", "setting": "human CD28", "value": 230, "unit": "nM"}]}, {"binder": "B2", "values": [{"measurement": "Kd", "setting": "human CD28", "value": 180, "unit": "nM"}]}, {"binder": "B3", "values": [{"measurement": "Kd", "setting": "human CD28", "value": 96, "unit": "nM"}]}, {"binder": "B4", "values": [{"measurement": "Kd", "setting": "human CD28", "value": 1000, "unit": "nM"}]}, {"binder": "B5", "values": [{"measurement": "Kd", "setting": "human CD28", "value": 37, "unit": "nM"}]}, {"binder": "B6", "values": [{"measurement": "Kd", "setting": "human CD28", "value": 600, "unit": "nM"}]}, {"binder": "B7", "values": [{"measurement": "Kd", "setting": "cynomolgus ENPP3 [1]", "value": 1800, "unit": "nM"}, {"measurement": "Kd", "setting": "Human ENPP3 [2]", "value": 74, "unit": "nM"}, {"measurement": "Kd", "setting": "cynomolgus ENPP3 [3]", "value": 1200, "unit": "nM"}, {"measurement": "Kd", "setting": "Human ENPP3 [4]", "value": 170, "unit": "nM"}]}, {"binder": "B8", "values": [{"measurement": "Kd", "setting": "cynomolgus ENPP3 [1]", "value": 460, "unit": "nM"}, {"measurement": "Kd", "setting": "Human ENPP3 [2]", "value": 9, "unit": "nM"}, {"measurement": "Kd", "setting": "cynomolgus ENPP3 [3]", "value": 470, "unit": "nM"}, {"measurement": "Kd", "setting": "Human ENPP3 [4]", "value": 35, "unit": "nM"}]}, {"binder": "B9", "values": [{"measurement": "Kd", "setting": "Ha16-1(3,5)5[ENPP3]_H1L1 [5]", "value": 21, "unit": "nM"}, {"measurement": "Kd", "setting": "ENPP3-A[ENPP3]_H1L1 [6]", "value": 320, "unit": "nM"}, {"measurement": "Kd", "setting": "[7]", "value": 110, "unit": "nM"}, {"measurement": "Kd", "setting": "Ha16-1(3,5)5[ENPP3]_H1L1 [8]", "value": 70, "unit": "nM"}, {"measurement": "Kd", "setting": "ENPP3-A[ENPP3]_H1L1 [9]", "value": 330, "unit": "nM"}, {"measurement": "Kd", "setting": "[10]", "value": 140, "unit": "nM"}]}]}
